# From the supplement of paper PMC9112550, “Optimization of the antimicrobial peptide Bac7 by deep mutational scanning” (BMC Biology, 2022)
# Tested on: Escherichia coli TOP10
# Assay: shrunken log2 fold change of peptide-encoding DNA abundance (4.5 h post-induction vs induction); higher = less antimicrobial activity (less host growth inhibition)
# Conditions: time post-induction: 4.5 h; library: site-saturation at positions 5, 18, 19, 20
# 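Further: peptides expressed intracellularly from a pBAD plasmid library in pooled LB shake-flask culture, induced with 0.3% L-arabinose, DNA abundance read by NGS, three biological replicates, DESeq2 with apeglm shrinkage.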
row,Sequence,shrunken log2 fold change
1,RRIRSRPPRLPRPRPRPSAQPRP,0.198
2,RRIRPRPPRLPRPRPRPAHIPRP,-0.205
3,RRIRIRPPRLPRPRPRPCLSPRP,-0.0164
4,RRIRNRPPRLPRPRPRPAQVPRP,0.157
5,RRIRSRPPRLPRPRPRPDGLPRP,0.0397
6,RRIRFRPPRLPRPRPRPEVKPRP,-0.00444
7,RRIRWRPPRLPRPRPRPQGWPRP,0.0714
8,RRIRNRPPRLPRPRPRPCYEPRP,-0.0244
9,RRIRVRPPRLPRPRPRPWLAPRP,0.232
10,RRIRRRPPRLPRPRPRPPDWPRP,0.618
11,RRIRRRPPRLPRPRPRPRPWPRP,0.737
12,RRIRIRPPRLPRPRPRPWDLPRP,-0.119
13,RRIRHRPPRLPRPRPRPASRPRP,0.103
14,RRIRLRPPRLPRPRPRPHCEPRP,-0.00711
15,RRIRHRPPRLPRPRPRPLGCPRP,0.116
16,RRIRFRPPRLPRPRPRPELVPRP,0.616
17,RRIRWRPPRLPRPRPRPKTFPRP,-0.0777
18,RRIRPRPPRLPRPRPRPEWYPRP,0.203
19,RRIRCRPPRLPRPRPRPILRPRP,0.103
20,RRIRERPPRLPRPRPRPQEDPRP,-0.0088
21,RRIRHRPPRLPRPRPRPLIEPRP,-0.106
22,RRIRMRPPRLPRPRPRPRDQPRP,0.776

row,Sequence,shrunken log2 fold change
1,RRIRPRPPRLPRPRPRPGDRPRP,0.0494
2,RRIRIRPPRLPRPRPRPGMQPRP,-0.282
3,RRIRNRPPRLPRPRPRPRCAPRP,0.708
4,RRIRIRPPRLPRPRPRPYSLPRP,-0.607
5,RRIRDRPPRLPRPRPRPGLSPRP,0.241
6,RRIRKRPPRLPRPRPRPYMYPRP,-0.445
7,RRIRFRPPRLPRPRPRPVPRPRP,0.384
8,RRIRTRPPRLPRPRPRPYNYPRP,-0.866
9,RRIRDRPPRLPRPRPRPHCAPRP,0.143
10,RRIRLRPPRLPRPRPRPDERPRP,0.0169
11,RRIRERPPRLPRPRPRPGLNPRP,0.127
12,RRIRSRPPRLPRPRPRPIHFPRP,-0.106
13,RRIRKRPPRLPRPRPRPVIQPRP,-0.0501
14,RRIRKRPPRLPRPRPRPATNPRP,0.712
15,RRIRRRPPRLPRPRPRPRADPRP,0.461
16,RRIRDRPPRLPRPRPRPVFIPRP,-0.476
17,RRIRPRPPRLPRPRPRPRRNPRP,-0.0266
18,RRIRPRPPRLPRPRPRPQLGPRP,0.159
19,RRIRKRPPRLPRPRPRPIQQPRP,0.25
20,RRIRGRPPRLPRPRPRPYACPRP,-0.00589
21,RRIRPRPPRLPRPRPRPSQNPRP,-0.107
22,RRIRPRPPRLPRPRPRPKGSPRP,0.0684

row,Sequence,shrunken log2 fold change
1,RRIRMRPPRLPRPRPRPSADPRP,3.21
2,RRIRYRPPRLPRPRPRPVDWPRP,0.145
3,RRIRWRPPRLPRPRPRPCADPRP,0.579
4,RRIRPRPPRLPRPRPRPLSTPRP,-0.0907
5,RRIRHRPPRLPRPRPRPNYVPRP,-0.0206
6,RRIRDRPPRLPRPRPRPQLKPRP,-0.0603
7,RRIRDRPPRLPRPRPRPQQRPRP,0.147
8,RRIRWRPPRLPRPRPRPEAGPRP,0.877
9,RRIRQRPPRLPRPRPRPHGKPRP,-0.352
10,RRIRCRPPRLPRPRPRPMHGPRP,0.0358
11,RRIRTRPPRLPRPRPRPQELPRP,0.0724
12,RRIRLRPPRLPRPRPRPRMAPRP,0.39
13,RRIRLRPPRLPRPRPRPFSSPRP,-0.000451
14,RRIRTRPPRLPRPRPRPVQVPRP,0.0995
15,RRIRFRPPRLPRPRPRPMGPPRP,-0.238
16,RRIRVRPPRLPRPRPRPWDFPRP,-0.0763
17,RRIRPRPPRLPRPRPRPPRHPRP,0.278
18,RRIRWRPPRLPRPRPRPSVFPRP,0.222
19,RRIRIRPPRLPRPRPRPQPKPRP,-0.0343
20,RRIRWRPPRLPRPRPRPKIAPRP,0.41
21,RRIRWRPPRLPRPRPRPESKPRP,0.268
22,RRIRERPPRLPRPRPRPTCCPRP,-0.0839

row,Sequence,shrunken log2 fold change
1,RRIRQRPPRLPRPRPRPAIGPRP,0.216
2,RRIRKRPPRLPRPRPRPTYYPRP,-0.442
3,RRIRCRPPRLPRPRPRPTHFPRP,0.526
4,RRIRCRPPRLPRPRPRPQQSPRP,-0.0144
5,RRIRRRPPRLPRPRPRPGATPRP,0.74
6,RRIRGRPPRLPRPRPRPKMFPRP,0.065
7,RRIRVRPPRLPRPRPRPLYQPRP,-0.0431
8,RRIRIRPPRLPRPRPRPPITPRP,-0.366
9,RRIRRRPPRLPRPRPRPMCNPRP,0.0275
10,RRIRQRPPRLPRPRPRPQRNPRP,-0.23
11,RRIRIRPPRLPRPRPRPEAYPRP,0.00489
12,RRIRERPPRLPRPRPRPWYKPRP,-0.0738
13,RRIRKRPPRLPRPRPRPHEVPRP,-0.00968
14,RRIRCRPPRLPRPRPRPAYSPRP,-0.97
15,RRIRMRPPRLPRPRPRPFLQPRP,-0.0339
16,RRIRNRPPRLPRPRPRPFKYPRP,-0.133
17,RRIRMRPPRLPRPRPRPKFCPRP,0.0393
18,RRIRARPPRLPRPRPRPMKGPRP,-0.132
19,RRIRMRPPRLPRPRPRPDCDPRP,0.0709
20,RRIRFRPPRLPRPRPRPYRLPRP,0.0227
21,RRIRVRPPRLPRPRPRPGKPPRP,0.0464
22,RRIRIRPPRLPRPRPRPMWPPRP,0.128

row,Sequence,shrunken log2 fold change
1,RRIRHRPPRLPRPRPRPHLPPRP,-0.0497
2,RRIRHRPPRLPRPRPRPMHLPRP,0.0317
3,RRIRWRPPRLPRPRPRPLDNPRP,-0.23
4,RRIRMRPPRLPRPRPRPTMLPRP,0.0475
5,RRIRTRPPRLPRPRPRPEQPPRP,0.309
6,RRIRNRPPRLPRPRPRPQYCPRP,-0.186
7,RRIRDRPPRLPRPRPRPVRPPRP,1.07
8,RRIRYRPPRLPRPRPRPGDKPRP,-0.288
9,RRIRGRPPRLPRPRPRPPKIPRP,0.835
10,RRIRFRPPRLPRPRPRPMQDPRP,-0.0947
11,RRIRYRPPRLPRPRPRPSRTPRP,-0.342
12,RRIRPRPPRLPRPRPRPEMAPRP,0.0664
13,RRIRYRPPRLPRPRPRPAYKPRP,-0.14
14,RRIRGRPPRLPRPRPRPAQIPRP,0.592
15,RRIRIRPPRLPRPRPRPGMAPRP,0.006
16,RRIRSRPPRLPRPRPRPDFDPRP,0.0818
17,RRIRMRPPRLPRPRPRPMRNPRP,1.62
18,RRIRPRPPRLPRPRPRPDIKPRP,-0.317
19,RRIRIRPPRLPRPRPRPSQEPRP,-0.317
20,RRIRVRPPRLPRPRPRPRSKPRP,-0.108
21,RRIRYRPPRLPRPRPRPMVAPRP,0.133
